Laboratory results as given in the supplement of paper PMC12042874.
± gives the uncertainty stated by the source.

Experiment: amyloid nucleation score (Sup35N fusion, yeast selection) (log enrichment); library NNK2; higher = more nucleation; inactive = no reads after selection
Procedure, shortened: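 Sup35N was fused to peptides of 20 random codons and expressed in psi-negative yeast, which were induced with 100 μM copper sulfate for 24 hours and then grown on medium lacking adenine and uracil for 7 days at 30°C. Plasmid inserts from input and output were sequenced on Illumina. The nucleation score is the DiMSum log enrichment of output over input reads, centred on the mode score of non-aggregating sequences. Sequences with under 100 input reads were left out, and random libraries had three technical output replicates.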

Substance	amyloid nucleation score
HYRDPFVKRLMKPVGRPATL	0.192 ± 0.55
NSFVYGCKCYALTFLRTFLV	-1.48 ± 0.62
RSYFSDFH	inactive
YLGTDGFNDGLVGLTTNIMS	-0.798 ± 0.47
TWFRSVMYPDLSHFYMF	inactive
VVSCGYARHDVGDFWLRDCR	0.481 ± 0.38
ASAAYWASVHICPNLSKRKL	0.328 ± 0.65
KLVLSNSALFRRTFAINPV	0.626 ± 0.8
RAYCAYTLR	5.94 ± 0.071
MRLVSSDDFCV	0.097 ± 0.8
ASDPIMTVSRPIPMHPLY	-0.172 ± 0.76
YISFVGW	-2.23 ± 0.62
TKFMIYRDYSLVKSHH	inactive
IDYVFAAGDKWWVSVLL	-0.412 ± 1.1
SCPMTSYGE	0.319 ± 0.8
VFGSYCGSVPRAAKFAMT	inactive
SIGPQRHLPYLLVFVYWTLS	0.309 ± 0.8
RGWLRFMEQNGTYSEYDVDL	12.82 ± 0.022
TLKLALEFLNEIYEEPVKCR	-1.36 ± 0.48
QGVDNGDRGRGRNLWASMRR	1.34 ± 0.39
KGWWGVIRDYREWFTGSRWG	0.594 ± 0.47
FAKFQGSKISPVSHTSLLST	inactive
FRCAE	3.84 ± 0.091
MILEVSDWLGVVCVIKVWLT	0.561 ± 0.41
NHVARMFLKQRFFSNMS	inactive

Substance	amyloid nucleation score
VHSSVRQMSDY	0.168 ± 0.4
MACTFHVLTMGRFWSAWHRM	0.598 ± 0.29
DIPTMVNGILYFTGYDPRVS	-0.647 ± 1.1
QFFMWTGGH	2.84 ± 0.1
HYAANVVRISYCGGHSRANF	5.1 ± 0.077
DKKMVTTPTMPDK	0.977 ± 0.2
LFVLDNMDDIWNSIISWVGR	-0.295 ± 0.65
TVAWTSRLFSLAGLLHFDR	4.82 ± 0.062
GSLYVLAMLSGYVAKPYKIY	-0.072 ± 0.79
YGWFFVYDEVLLFISYSNVV	inactive
IFNVHMVRF	9.317 ± 0.052
LSNLGTNYR	inactive
YFGGFAKRQSTLPATRKYRL	1.34 ± 0.52
RTEGRGCRAAWSK	0.101 ± 0.76
NLRYVFRFII	2.9 ± 0.073
GYWEAFFQLGASPYAGRSRG	-0.13 ± 0.76
FKDRYRTGFSDVRNQVAHSV	inactive
MKRLPDSDIMVVPIVHKINL	inactive
LAKRGCVIVCFLTFHYTIRR	-0.348 ± 0.28
SHTDYHRFAWMF	-1.74 ± 0.53
TLQMGQSMPSFFGLRWAVYR	0.503 ± 0.43
YETCSFKNPTFFPRNLYKMW	-0.103 ± 0.46
RRRGVLLTRPLKRQLVK	inactive
SSLYHLAGHGTAGSRLTSGR	0.511 ± 0.41
LRFNSNHPHFRGHLYSAVQR	3.7 ± 0.15

Substance	amyloid nucleation score
WTGHMPMSLVHLMIGWHGHY	0.637 ± 0.62
FYEYTDTASAGPDETLYLRN	0.022 ± 0.63
CITLRYYMDVRLSLHMKRTW	0.988 ± 0.53
SIFNFKATFGNSSRDVMSDD	3.28 ± 0.057
LRTQSILYLRRMG	-0.164 ± 0.32
TMWRVIGSVYFVKFFSATLG	-0.07 ± 0.43
YIPARSRMGYVAQKLGTTRL	-0.025 ± 0.61
SHHHSQTRKIDPSTDFSQSS	-0.047 ± 1.1
IPCVMG	0.004 ± 0.65
IFNVSLGYLTLIMVHYEFLH	5.733 ± 0.042
TSISYLRVYTRSFMRSLSGL	inactive
SYVDNWNISRVYLRLTYSVY	-0.96 ± 0.49
MLLYNESNANQLKRGSGRWL	0.156 ± 0.32
TLRVLCTVCYSMDRVAA	inactive
FLIVPKILNICL	7.746 ± 0.077
SLLLFIYQMDRLVVASMLTN	-0.651 ± 1.1
MDCECG	1.03 ± 0.3
ITTSSSWCATILSPQFFKDV	-0.569 ± 0.44
CPTNIRP	-1.18 ± 0.63
SGQYKENYGGFHHMLVRWRC	-0.042 ± 0.27
TFNLKPRFLFV	5.18 ± 0.087
YLASNLEDKWVWDGFMLVSR	0.356 ± 0.74
VHMVPHCATW	1.01 ± 0.38
FSYLAI	-0.896 ± 0.61
MWIHYKVFRCWTVRAEKVTG	4.29 ± 0.083

Substance	amyloid nucleation score
SILGSSRTCILSSWWNVGTL	-0.091 ± 0.8
DVFVRSRGKGRFMGSRDNWA	0.76 ± 0.4
SDSKG	0.113 ± 1.1
ENGIICR	0.088 ± 0.49
GTPDYGCSSNVYCD	inactive
ADSVLYNCVCRFSSVPQVLR	-0.263 ± 0.31
PRMRWAVCERP	4.11 ± 0.096
LPHKIM	0.262 ± 0.53
FKSTYVHHYRVMPGSVVLLR	-1.2 ± 1.1
SIMGRIKIAIHVLRS	4.12 ± 0.091
NRICYRLGCLRADNDNDLSG	-0.234 ± 0.26
SLYCGGQMLD	inactive
NFCPLPLVRCIECLRTMDGV	inactive
LYPCYYCRAEKVHVRLDFTR	-0.517 ± 0.23
VSVARSSFARKDYCEFFRPG	1.17 ± 0.28
AFVLRVNYNLNTRGYVSLFK	2.14 ± 0.14
VHAVGHNSIGTRIRWVNGAA	0.504 ± 0.33
DERSLLDLHYCR	0.912 ± 0.43
SLSLGLSSCEPYYAVC	-0.276 ± 0.28
NEYYAFFRLSADSASS	0.571 ± 0.51
TLSCSYVCAPTVYVQSSRPT	1.27 ± 0.18
KFLLGSVGTLQSNPTLFHLR	0.095 ± 0.33
CTILVILSKVSYCQYPWEHV	1.52 ± 0.14
INLYPR	inactive
LDTCVFHHLVGIEKATIYR	0.455 ± 0.48

Substance	amyloid nucleation score
AGSLRR	1.51 ± 0.41
SYLKETMTGLLPLG	inactive
SSASALMKLVMMY	-0.003 ± 0.22
ALFIRVYMLFRRCEECSLQV	7.575 ± 0.055
IDPADVGILSCCFLNDSKHE	0.467 ± 0.46
VRFWSLMCYACFSQSGSRVR	3.91 ± 0.084
LSSGLLSLFALKQCF	-0.669 ± 0.54
GCNLFYCLTRSSIETNTSIS	4.3 ± 0.095
SWLSYSVRSM	inactive
NVVSLIIQRKLRPAPVGSFR	0.218 ± 1.1
VDSPKREVNMCVWLLRRKQR	0.21 ± 0.34
SFKICKLMNSNRFFVGICCT	0.057 ± 1.1
YFSDLDAL	inactive
LFQSLNLISINSVVPYEPVT	2.43 ± 0.092
ILKPYCVCDLSNKLE	0.199 ± 0.4
RSCATFIFVMS	4.98 ± 0.073
GLQSVDGLQNTYLGSNAVVD	0.87 ± 0.26
MKSLLLLCCYSELAYLCGML	-1.34 ± 0.4
TLLVKSMGGSLET	4.11 ± 0.044
PLERKRLSHCRWLGRRRLGG	1 ± 0.34
VKIWLCATCFMGEDVQETAQ	7.055 ± 0.044
CNGSRVKDFRCRFRWNGLGL	-0.889 ± 0.41
LDKAIHSWGVLDWAVKQDNA	0.293 ± 0.26
NLSYSVVMTGISGAMTTCCF	3.64 ± 0.11
AVPNLGSVPYVVDLMI	0.907 ± 0.29

Substance	amyloid nucleation score
CAPVCFFRGSLRCRSRLTWR	-0.221 ± 1.1
HNLFNHIADNQGRGIEEKLT	-0.003 ± 1.1
SSLVNTACDTL	-0.036 ± 0.29
CHTTMPGIVCKLGTYARGEG	6.638 ± 0.066
RQLAQQYAHAFGYIFHSLYL	1.19 ± 0.4
TVLILPPHTRSDINFMVHYT	4.43 ± 0.063
LSHLFSV	-0.381 ± 1.1
NACILNSM	inactive
LIISRTFVTAPM	inactive
NSRRQERWCFIMTLVDFDVV	-0.431 ± 0.4
SLFCVPSSRKVLFLGRTVVV	0.123 ± 1
LDDVNMWFHIGNGRGGGELW	0.092 ± 1.1
RNLTFYKTSPVGRC	0.712 ± 0.4
GAAHDSYMNRWLITWNSKCK	-1.52 ± 0.76
FLFEN	-0.607 ± 0.64
FRGDILRFL	inactive
IYGLCERTFEA	0.977 ± 0.14
TFLWKFMLNVTTFFIFPKPV	-1.77 ± 1
LHLFAKSATSLVIVFAQDLI	-0.455 ± 0.42
YVSFMGNSNMFVKLFLRGCI	0.391 ± 0.2
LKVRKLSLARCVGIHTLQT	4.4 ± 0.06
IDWIGPIYMHIAVMMVTVFQ	4.924 ± 0.033
TIWRCFLT	0.685 ± 0.33
VTTMRNSFKFYAIVMGLCSF	0.272 ± 0.65
YWELDCTGYEGGMIRREWEI	0.586 ± 0.81

Substance	amyloid nucleation score
FRDCYCRVVAPYDLHFVCTW	0.573 ± 0.15
SNVTTYSNVSYIRHHSHYLG	1.32 ± 0.44
AANRPGTSC	0.767 ± 0.74
YNYLCWNRKKGANRTCVSGR	-0.502 ± 0.44
AADRFVAMKICVLCHLKQSL	1.88 ± 0.25
VFSDWMNCRYLMLRVCRVPR	0.629 ± 0.56
KGYGIHFCFRCMDSRCGVS	0.97 ± 0.28
FDYKSKKGRNNDWRTVCCVM	2.21 ± 0.16
RWIVGQRRKIESWWQMVPIY	0.81 ± 0.4
NMHNTCMYKRKLVMDSSVWL	inactive
GMGSVCGIIEYAWTA	0.627 ± 0.3
AMSFGCSAWYTSYRDMFCRG	3.17 ± 0.15
VVLPFGMHAWYTKDNVEISS	0.181 ± 0.15
YVVKWPCGLTPCALPTPIRQ	0.969 ± 0.21
YQHDT	0.871 ± 0.27
SFYVIRVGSLPFRS	3.25 ± 0.075
GYSDYVSYVKGC	0.182 ± 0.8
SSMGIVGPYGWFSTSMVNIV	0.895 ± 0.28
TDCRFIIVYMVIGSFLYTRV	-0.747 ± 1.1
TYYVYEVGVS	-0.203 ± 0.41
